Measured values published in article PMC7157757, “A Novel Combined Scientific and Artistic Approach for the Advanced Characterization of Interactomes: The Akirin/Subolesin Model” (Vaccines, 2020).

Target: the molecule itself
Test: SEC; HiPrep 16/60 Sephacryl S-100 HR; proteins incubated in PBS overnight at 4 °C before dilution in column buffer (50 mM sodium phosphate, 150 mM sodium chloride, pH 7.2); 0.8 mL/min; monomer and dimer

B1: Recombinant I. scapularis AKR/SUB (natural protein)
chain: not shown
notes: Akirin/Subolesin (AKR/SUB), Ixodes scapularis, Q4VRW2; also called Subolesin; tick SUB; source: Escherichia coli, Champion pET101 Directional TOPO Expression kit, as previously described [34,35]
stoichiometry N: 2
